Assay results as given in publication PMC12554172, “Systematic analysis of the RGS2 degron reveals characteristics of substrate recognition by the F-box protein FBXO44” (The Journal of Biological Chemistry, 2025).

Experiments:
HEK-293T cells = assay: RGS2 protein levels, baseline and with proteasome inhibitor MG-132; assay type: cell-based, human; settings: Fig. S4, five or six independent experiments; for change of RGS2 protein levels with MG-132 (Fig. S4): MG-132 10 μM, 4 h; for basal RGS2 protein expression versus RGS2^WT (Fig. S4): no MG-132
Excerpt: Representative Western blot and quantification of three independent experiments. […] Representative Western blot and quantification of three independent experiments. Representative Western blot (D), quantification of knockdown efficiency (E), and effects on RGS protein levels (F) when FBXO44 is knocked down using siRNA. […] Result of three independent experiments. ∗p < 0.05; ∗∗p < 0.01; ∗∗∗p < 0.001 using two-way ANOVA followed by Tukey's post hoc test for pairwise comparisons (C, E, and F). FBXO44, F-box only protein 44; HEK-293T, human embryonic kidney-293T cell line; RGS2, regulator of G protein signaling 2.
Cells were harvested on ice in lysis buffer containing protease inhibitors (50 mM Tris–HCl [pH 7.4], 5 mM NaCl, 0.5 mM EDTA, 1% Triton X-100, 10% cOmplete Protease Inhibitor Cocktail EDTA-free). Lysates were bath sonicated for 10 min at 4 °C, centrifuged at 6000g for 3 min, and the supernatant was used for SDS-PAGE and immunoblotting. Total protein concentration was determined using the Pierce BCA Protein Assay Kit. Samples were diluted to 1 μg/μl in protein sample loading buffer (Li-Cor Biosciences).
Equal amounts of protein in each lane were resolved on a 12% SDS-PAGE gel for 1 h at 160 V. Samples were transferred to an Immobilon-FL PVDF membrane (Millipore) and subjected to Western immunoblot analysis using Li-Cor blocking buffer for both blocking and antibody diluents. Membranes were blocked for 1 h, then incubated for 2 h in primary antibodies as described under “Antibodies,” and finally incubated for 1 h with IRDye secondary antibodies directed at the species of the primary antibody. Following each antibody incubation, membranes were washed four times in PBS with 0.1% Tween-20. Membranes were imaged using an Azure600 imaging system (Azure Biosystems).
Figure S4. Effect of RGS2 mutations on protein stability. Representative western blot and quantification of five or six independent experiments (varies by mutation). The proteasome inhibitor MG-132 (10 μM, 4 h) […]
P15R were predicted to destabilize RGS2, due to increased binding to FBXO44 in the peptide microarray. […]
significant. *P<0.05; ***P<0.001 using two-way ANOVA followed by Tukey’s post hoc test for pairwise

FBXO44^FBA = target: T1, FBXO44^FBA (Homo sapiens, UniProt Q9H4M3); assay: Peptide microarray (PEPperPRINT), FLAG-FBXO44^FBA binding; settings: 2 μg/ml FBXO44^FBA overnight at 4 °C; for Mean % difference from parent peptide (FLAG immunoreactivity): Table S1, RGS2^5–16 single-residue substitution, PBS 0.005% Tween pH 7.4, anti-FLAG DyLight800 fluorescence, three independent experiments with three technical replicates each; for FBXO44^FBA binding in peptide microarray (in words): versus parent RGS2^5–16 peptide, fluorescence
T1 construct: we expressed and purified only this domain for all in vitro studies; 6xHis (N, cleaved yes); MBP (N, cleaved yes); made in house; host or cells: Escherichia coli Rosetta BL21 (λDE3)
T1 sequence (Q9H4M3 71-252 limits assumed): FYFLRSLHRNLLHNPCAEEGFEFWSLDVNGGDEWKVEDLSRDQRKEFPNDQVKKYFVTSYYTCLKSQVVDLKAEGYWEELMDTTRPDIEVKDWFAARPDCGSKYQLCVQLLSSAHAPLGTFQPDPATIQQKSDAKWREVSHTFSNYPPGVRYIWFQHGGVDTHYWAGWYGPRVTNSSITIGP
Excerpt: To do so, we utilized a custom peptide microarray (PEPperPRINT GmbH). The design of this array was twofold: (1) substitution at each position with every other natural eukaryotic amino acid; (2) truncation of the peptide from the C terminus. We assessed the binding of FLAG-FBXO44^FBA to the array utilizing fluorescence immunoreactivity corresponding to the amount of FLAG-FBXO44^FBA bound. […] Substitutions at Asp^12 were not only tolerated but also seemed to improve binding in every case (Fig. 3B). This, combined with the fact that substituting any residue in His^11–Met^16 with Arg, and in most cases with Lys, improved FBXO44^FBA binding, indicating the presence of negative charges at the binding interface.
Figure 2 Systematic mutation of the RGS2 degron alters FBXO44^FBA binding. A custom microarray (PEPperPRINT) was designed where each position of the RGS2^5–16 peptide was substituted for each natural amino acid. We also included truncated peptides on the array. This was incubated with purified FBXO44^FBA and probed with α-FLAG. A, a representative scan of a peptide microarray (top) and a truncated peptide (bottom). B, heatmap of mean fluorescence of quantified microarray scans. The scale represents the mean fluorescence in percentage points across all replicates, normalized to the signal obtained with the original residue at each position. C, heatmap of standard deviation of quantified microarray scans. The scale represents the standard deviation in percentage points across all replicates. […] Residues are color-coded based on properties: blue, positive charge; red, negative charge; orange, uncharged polar; green, hydrophobic; yellow, Cys (C); bright green, Pro (P); and black, Gly (G). […] Results of three independent experiments with three technical replicates each. For a statistical significance summary, see Table S1. FBXO44, F-box only protein 44; RGS2, regulator of G protein signaling 2.
Figure 3 Effects of RGS2^5–16 peptide residue changes on FBXO44^FBA binding. Data are presented as % FLAG immunoreactivity, as compared with the parent peptide residue. […] The original residue is marked in each graph with a vertical dotted line. Boxes extend from the 25th to 75th percentile with a line marking the median. Whiskers extend to the minimum and maximum. Results of three independent experiments with three technical replicates each. Data were analyzed by two-way ANOVA, with Tukey's post hoc test for pairwise comparison (simple effect within columns). Statistical significance is summarized in Table S1 and color-coded according to the legend. FBXO44, F-box only protein 44; RGS2, regulator of G protein signaling 2.
The microarray slide was seated into the incubation tray according to PEPperPRINT's instructions. The array well was then incubated in washing buffer (PBS) with 0.005% Tween (Sigma; P1379, pH 7.4) at room temperature for 15 min on an orbital shaker. Washing buffer was aspirated, and the array was then incubated with Rockland blocking buffer at room temperature for 30 min on an orbital shaker. Blocking buffer was then aspirated, and the array was incubated in staining buffer (washing buffer with 10% Rockland blocking buffer) at room temperature for 15 min on an orbital shaker. Staining buffer was aspirated, and purified FBXO44 FBA domain diluted to 2 μg/ml in staining buffer was added. The array was then placed on an orbital shaker overnight at 4 °C. The FBA domain solution was removed, and an array was washed three times with washing buffer. After the third array was incubated in staining buffer for 15 min at 4 °C on an orbital shaker. The array was then incubated with antibody dilution (anti-FLAG DyLight800 and anti-HA DyLight680, both diluted 1:2000 in staining buffer) for 45 min at 4° C on an orbital shaker. The array was then washed three times with washing buffer. […]

[1] = treatment of certain blood cancers; background statement; cited from earlier work
Excerpt: RGS2 is rapidly and constitutively degraded by the ubiquitin–proteasomal system ([12], [13]). Dysfunction of this crucial system can lead to accumulation of misfolded or aged proteins, cell cycle arrest, and uncontrolled cell proliferation ([14], [15], [16], [17]), driving various pathologies, including multiple cancers and cardiovascular disease ([18], [19]). Proteasome inhibitors, such as bortezomib (Velcade) and carfilzomib, are used in the treatment of certain blood cancers ([20], [21]). However, the severe side effects associated with these drugs, including neuropathies, fatigue, and anem ...

Molecule	Mean % difference from parent peptide (FLAG immunoreactivity) (FBXO44^FBA) [%]	other results
P15G: array RGS2^5–16 peptide, P15 substituted by G	-30.63	change of RGS2 protein levels with MG-132 (Fig. S4) (HEK-293T cells): none of these mutations resulted in significant changes in basal expression or response to MG-132; basal RGS2 protein expression versus RGS2^WT (Fig. S4) (HEK-293T cells): none of these mutations resulted in significant changes in basal expression; FBXO44^FBA binding in peptide microarray (in words) (FBXO44^FBA): decreased binding
CC(C)C[C@H](NC(=O)[C@H](CCc1ccccc1)NC(=O)CN1CCOCC1)C(=O)N[C@@H](Cc1ccccc1)C(=O)N[C@@H](CC(C)C)C(=O)[C@@]1(C)CO1 [carfilzomib]	–	severe side effects [1]: neuropathies, fatigue, and anemia
P15R: array RGS2^5–16 peptide, P15 substituted by R (MFLAVQHDCRRM)	158	change of RGS2 protein levels with MG-132 (Fig. S4) (HEK-293T cells): none of these mutations resulted in significant changes in basal expression or response to MG-132; basal RGS2 protein expression versus RGS2^WT (Fig. S4) (HEK-293T cells): none of these mutations resulted in significant changes in basal expression; FBXO44^FBA binding in peptide microarray (in words) (FBXO44^FBA): enhanced FBXO44^FBA binding
D12R: array RGS2^5–16 peptide, D12 substituted by R (MFLAVQHRCRPM)	184.9	basal RGS2 protein expression versus RGS2^WT (Fig. S4) (HEK-293T cells): trend towards decreased expression; FBXO44^FBA binding in peptide microarray (in words) (FBXO44^FBA): enhanced FBXO44^FBA binding
D12H: array RGS2^5–16 peptide, D12 substituted by H (MFLAVQHHCRPM; UniProt P41220 5-16, looked up, variant D12H)	37.64	–
D12Y: array RGS2^5–16 peptide, D12 substituted by Y (MFLAVQHYCRPM; UniProt P41220 5-16, looked up, variant D12Y)	31.8	–
M16K: array RGS2^5–16 peptide, M16 substituted by K (MFLAVQHDCRPK; UniProt P41220 5-16, looked up, variant M16K)	38.94	–
A8R: array RGS2^5–16 peptide, A8 substituted by R (MFLRVQHDCRPM; UniProt P41220 5-16, looked up, variant A8R)	27.84	–
M16A: array RGS2^5–16 peptide, M16 substituted by A (MFLAVQHDCRPA; UniProt P41220 5-16, looked up, variant M16A)	-33.89	–
CC(C)C[C@H](NC(=O)[C@H](Cc1ccccc1)NC(=O)c1cnccn1)B(O)O [bortezomib]	–	severe side effects [1]: neuropathies, fatigue, and anemia
P15C: array RGS2^5–16 peptide, P15 substituted by C	26.71	–
H11R: array RGS2^5–16 peptide, H11 substituted by R (MFLAVQRDCRPM)	41.19	FBXO44^FBA binding in peptide microarray (in words) (FBXO44^FBA): modest effects, with only one or two substitutions for each reaching significance
D12G: array RGS2^5–16 peptide, D12 substituted by G (MFLAVQHGCRPM; UniProt P41220 5-16, looked up, variant D12G)	28.74	–
D12V: array RGS2^5–16 peptide, D12 substituted by V (MFLAVQHVCRPM; UniProt P41220 5-16, looked up, variant D12V)	40.66	–
D12F: array RGS2^5–16 peptide, D12 substituted by F (MFLAVQHFCRPM; UniProt P41220 5-16, looked up, variant D12F)	34.22	–
R14W: array RGS2^5–16 peptide, R14 substituted by W (MFLAVQHDCWPM)	32.54	FBXO44^FBA binding in peptide microarray (in words) (FBXO44^FBA): modest effects, with only one or two substitutions for each reaching significance
D12N: array RGS2^5–16 peptide, D12 substituted by N (MFLAVQHNCRPM; UniProt P41220 5-16, looked up, variant D12N)	55.82	–
P15K: array RGS2^5–16 peptide, P15 substituted by K (MFLAVQHDCRKM; UniProt P41220 5-16, looked up, variant P15K)	52.32	–
C13Q: array RGS2^5–16 peptide, C13 substituted by Q (MFLAVQHDQRPM; UniProt P41220 5-16, looked up, variant C13Q)	-77.02	–
P15D: array RGS2^5–16 peptide, P15 substituted by D (MFLAVQHDCRDM; UniProt P41220 5-16, looked up, variant P15D)	31.74	–
